Tests used:
[1] = target: Purified SUMO-1 (Biomol UW9190), not acetylated
[2] = target: Purified SUMO-2 (Biomol UW9200)
[3] = target: Purified SUMO-3 (Biomol UW9210)
Chain of Purified SUMO-3 (Biomol UW9210) (P55854 whole entry): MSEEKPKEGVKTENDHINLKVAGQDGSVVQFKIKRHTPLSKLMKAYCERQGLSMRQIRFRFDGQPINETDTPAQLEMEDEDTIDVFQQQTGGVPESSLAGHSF

Row | Protein | in vitro acetylation with 14C-acetyl CoA, autoradiography [1] | in vitro acetylation with 14C-acetyl CoA, autoradiography [2] | in vitro acetylation with 14C-acetyl CoA, autoradiography [3]
1 | CBP (CREB binding protein) from Biomol (protein) RKENKFSAKRLQTTRLGNHLEDRVNKFLRRQNHPEAGEVFVRVVASSDKTVEVKPGMKSRFVDSGEMSESFPYRTKALFAFEEIDGVDVCFFGMHVQEYGSDCPPPNTRRVYISYLDSIHFFRPRCLRTAVYHEILIGYLEYVKKLGYVTGHIWACPPSEGDDYIFHCHPPDQKIPKPKRLQEWYKKMLDKAFAERIIHDYKDIFKQATEDRLTSAKELPYFEGDFWPNVLEESIKELEQEEEERKKEESTAASETTEGSQGDSKNAKKKNNKKTNKNKSSISRANKKKPSMPNVSNDLSQKLYATMEKHKEVFFVIHLHAGPVINTLPPIVDPDPLLSCDLMDGRDAFLTLARDKHWEFSSLRRSKWSTLCMLVELHTQGQDRFVYTCNEC | purified SUMO-1 was efficiently acetylated by CBP (lane 3) | SUMO-2 and SUMO-3 were also robustly acetylated by CBP (FIG. 2D, lanes 6-7) | SUMO-2 and SUMO-3 were also robustly acetylated by CBP (FIG. 2D, lanes 6-7)
2 | PCAF (protein) GVIEFHVVGNSLNQKPNKKILMWLVGLQNVFSHQLPRMPKEYITRLVFDPKHKTLALIKDGRVIGGICFRMFPSQGFTEIVFCAVTSNEQVKGYGTHLMNHLKEYHIKHDILNFLTYADEYAIGYFKKQGFSKEIKIPKTKYVGYIKDYEGATLMGCELNPRIPYTE | but not by PCAF (not shown) |  | 
